Test results published in patent US20070036810A1, “Cyclic amp response element activator proteins and uses related thereto” (priority 2003, published 2007).
Each block holds one molecule with its values, some of them ahead of it.

Assays:
[1] = tested on: GAL4 DNA binding sites (UAS-Luc, pFR-Luc reporter); assay: GAL4 DNA binding domain fusion transactivation assay (pFR-Luc) in HEK 293 cells; format: cell-based; settings: normalized to pCMV-BD vector
Description: To determine if CREAP proteins can act as a transcription activators, various regions of all 3 CREAP homologs (amino acids 300-650 of CREAP1, amino acids 296-694 of CREAP2 and amino acids 335-635 of CREAP3) were expressed as fusion proteins with the DNA binding domain of GAL4 and tested for the ability to activate expression of a reporter gene linked to GAL4 protein binding sequences (UAS-Luc (pFR-Luc reporter). Briefly, the indicated regions of CREAP1, CREAP2 and CREAP3 were amplified by PCR and subcloned in frame into pCMV-BD vector (Stratagene) encoding GAL4 DNA binding domain. Selected plasmids and empty vector (pCMV-SPORT6) were transfected into HEK 293 cells at 75 ng/well using Fugene6 transfection reagent (Roche) as described above. pFR-Luc reporter (Stratagene) encoding firefly luciferase gene driven by minimal promoter linked to 5 concatamerized GAL4 binding sites (UAS) was co-transfected at 100 ng/well. As a positive control, the reporter was also co-transfected with a plasmid encoding GAL4-CREB fusion protein (Stratagene) alone or in the presence of pFC-PKA an expression construct encoding catalytic subunit of protein kinase A (Stratagene) to activate the CREB kinase inducible activation domain. Fold induction was compared to the reporter's activity measured in the cells transfected with pCMV-BD an expression vector carrying GAL4 DNA binding domain only.
Expression constructs encoding full length CREAP1, CREAP2 and CREAP3 as well as a Gal4 DNA binding domain alone or fused with C-terminal portions of CREAP1, CREAP2 and CREAP3 were tested for the ability to induce expression of a luciferase gene controled by a minimal promoter linked to GAL4 DNA binding sites (pFRLuciferase). The data shown are normalized to the value seen with pCMV-BD vector co-transfected with pFR-Luc reporter.

[2] = tested on: minimal promoter linked to multiple copies of CRE; assay: CRE-Luc reporter co-transfection assay with the CREAP gene family; format: cell-based; settings: for CRE: level of expression of luciferase relative to empty vector: cotransfection, relative to empty pCMV-SPORT6 vector
Description: (§1) The entire amino acid sequence for CREAP1 was used in a BLASTP search of a public NCBI database. Initially two public domain cDNAs (XM—117201 and FLJ00364) were identified that have significant homology to the CREAP1 coding region. The nucleotide sequence of XM—117201 was used in a BLASTN search (Altschul S. F. et al., Nucleic Acids Res. 25:3389-3402 (1997)) of a proprietary cDNA library EST database and 4 clones were identified that represent XM—117201 public sequence. All 4 clones were functionally tested upon co-transfection with the CRE-Luc and IL-8p-Luc reporters initially found to be induced by CREAP using methods similar to those disclosed above. Briefly, trypsinized HeLa cells are resuspended in complete growth media at 6×10^4 cells/ml and distributed into white 96-well plates (Costar) in the volume of 100 μl per well. Cells are left overnight in a tissue culture incubator at 37° C. and 5% CO2. pGL3B-IL-8p-Luc reporter plasmid or CRE-Luc reporter (BD Biosciences) as well as tested cDNAs are resuspended in OptiMEM I low serum media (GIBCO BRL) at 25 ng/ml. The reporter plasmids and cDNAs are then distributed into 96-well clean PCR plates (ABGene) at 4 μl/well and 3 μl/well respectively. Mixture containing Fugene 6 reagent (Roche Applied Bioscience) at 1.5 μl per transfection and pRL-SV40 (Promega) plasmid 20 ng per transfection is added in the volume of 10 μl per well of the 96-well PCR plate containing prediluted cDNAs. […]
(§2) The activity of firefly and Renilla luciferase is measured using the DualGlo Luciferase Assay System (Promega) following the protocol supplied by the manufacturer. Briefly, 115 μl of freshly reconstituted luciferase reagent is added to each well of the 96-well tissue culture plates with a Multidrop 384 and, after 15 minutes incubation, luminescence is read on a LUMINOSKAN Ascent Luminometer (Thermo Labsystems) with a 400 msec integration time. Subsequently, 115 μl of Stop-and-Glo reagent is added to each well of the 96-well tissue culture and, after 15 minutes incubation, luminescence is read on a LUMINOSKAN Ascent Luminometer with a 200 msec integration time. The activity of each tested cDNA is measured as a ratio of the corresponding firefly and Renilla luciferase activities.
To investigate this, the ability of CREAP2 and CREAP3 to activate gene expression driven by the IL-8 promoter and a CRE-dependent promoter was tested in co-transfection assays as disclosed above. Briefly, the levels of expression of a luciferase reporter driven by either the IL-8 promoter or a minimal promoter linked to 4 copies of CRE were determined after cotransfection with either an empty pCMV-SPORT6 expression vector or with the same vector carrying a cDNA for CREAP1, CREAP2 or CREAP3. […]

[3] = tested on: Interleukin-8 promoter; assay: IL-8 promoter luciferase reporter co-transfection assay with the CREAP gene family; format: cell-based, human; settings: cotransfection, relative to empty pCMV-SPORT6 vector
Description: as §1, with “respectively.” for “respectively. Mixture containing Fugene 6 reagent (Roche Applied Bioscience) at 1.5 μl per transfection and pRL-SV40 (Promega) plasmid 20 ng per transfection is added in the volume of 10 μl per well of the 96-well PCR plate containing prediluted cDNAs.”
as §2, with “activities. […]” for “activities.”

[4] = tested on: GAL4-CREB fusion protein; assay: GAL4-CREB activation assay in HLR cell line; format: cell-based; settings: HLR cell line with integrated pFR-Luc reporter, normalized to pCMV-BD vector
Method: To determine if CREAP proteins can directly activate CREB1 protein, the expression constructs of CREAP1, CREAP2 and CREAP3 were transfected individually or with GAL4-CREB plasmid (Stratagene) into HLR cell line (Stratagene) carrying genomic DNA integrated copies of pFR-Luc reporter. Briefly, HLR cells were maintained per manufacturer's instructions. Selected plasmids and either empty vector (pCMV-BD) or GAL4-CREB plasmid were transfected at 75 ng/well using Fugene6 transfection reagent (Roche) as described above. As a positive control pFC-PKA an expression construct encoding catalytic subunit of protein kinase A (Stratagene) was also co-trasfected with GAL4-CREB. Fold of activation was compared to the reporter's activity measured in the cells transfected with empty vector.
The ability of full length CREAP1, CREAP2 and CREAP3 to induce the activity of GAL4-CREB fusion protein (Stratagene) was tested. The data presented are normalized to the value seen with pCMV-BD vector. […] Note the fold induction obtained with positive control is lower when compared to the data from Table 6 when all the plasmids including the reporter were transiently transfected.

CRE: level of expression of luciferase relative to empty vector [2]: 38.6
IL-8: level of expression of luciferase relative to empty vector [3]: 126.8571
B1: CREAP2: human CREAP family protein of 693 amino acids, SEQ ID NO 16 (protein)
chain: MATSGANGPGSATASASNPRKFSEKIALQKQRQAEETAAFEEVMMDIGSTRLQAQKLRLAYTRSSHYGGSLPNVNQIGSGLAEFQSPLHSPLDSSRSTRHHGLVERVQRDPRRMVSPLRRYTRHIDSSPYSPAYLSPPPESSWRRTMAWGNFPAEKGQLFRLPSALNRTSSDSALHTSVMNPSPQDTYPGPTPPSILPSRRGGILDGEMDPKVPAIEENLLDDKHLLKPWDAKKLSSSSSRPRSCEVPGINIFPSPDQPANVPVLPPAMNTGGSLPDLTNLHFPPPLPTPLDPEETAYPSLSGGNSTSNLTHTMTHLGISRGHGPGPGYDAPGLHSPLSHPSLQSSLSNPNLQASLSSPQPQLQGSHSHPSLPASSLACHVLPTTSLGHPSLSAPALSSSSSSSSTSSPVLGAPSYPASTPGASPHHRRVPLSPLSLLAGPADARRSQQQLPKQFSPTMSPTLSSITQGVPLDTSKLSTDQRLPPYPYSSPSLVLPTQPHTPKSLQQPGLPSQSCSVQSSGGQPPGRQSHYGTPYPPGPSGHGQQSYHRPMSDFNLGNLEQFSMESPSASLVLDPPGFSEGPGFLGGEGPMGGPQDPHTFNHQNLTHCSRHGSGPNIILTGDSSPGFSKEIAAALAGVPGFEVSAAGLELGLGLEDELRMEPLGLEGLNMLSDPCALLPDPAVEESFRSDRLQ
modifications: human
Fold Induction [1]: 2.47
Fold Induction [4]: 2.435

CRE: level of expression of luciferase relative to empty vector [2]: 71.4
IL-8: level of expression of luciferase relative to empty vector [3]: 574.5714
B2: CREAP3: human CREAP family protein of 619 amino acids, SEQ ID NO 25; reconstructed full-length FLJ00364 cDNA (protein)
chain: MAASPGSGSANPRKFSEKIALHTQRQAEETRAFEQLMTDLTLSRVQFQKLQQLRLTQYHGGSLPNVSQLRSNASEFQPSFHQADNVRGTRHHGLVERPSRNRFHPLHRRSGDKPGRQFDGSAFGANYSSQPLDESWPRQQPPWKDEKHPGFRLTSALNRTNSDSALHTSALSTKPQDPYGGGGQSAWPAPYMGFCDGENNGHGEVASFPGPLKEENLLNVPKPLPKQLWETKEIQSLSGRPRSCDVGGGNAFPHNGQNLGLSPFLGTLNTGGSLPDLTNLHYSTPLPASLDTTDHHFGSMSVGNSVNNIPAAMTHLGIRSSSGLQSSRSNPSIQATLNKTVLSSSLNNHPQTSVPNASALHPSLRLFSLSNPSLSTTNLSGPSRRRQPPVSPLTLSPGPEAHQGFSRQLSSTSPLAPYPTSQMVSSDRSQLSFLPTEAQAQVSPPPPYPAPQELTQPLLQQPRAPEAPAQQPQAASSLPQSDFQLLPAQGSSLTNFFPDVGFDQQSMRPGPAFPQQVPLVQQGSRELQDSFHLRPSPYSNCGSLPNTILPEDSSTSLFKDLNSALAGLPEVSLNVDTPFPLEEELQIEPLSLDGLNMLSDSSMGLLDPSVEETFRADRL
modifications: human
notes: reconstructed full-length FLJ00364 cDNA
Fold Induction [1]: 1.58
higher level of induction of gene expression compared to CREAP1 and CREAP2 ([2]; CRE and IL-8 promoter reporters): 2-4 fold
Fold Induction [4]: 2.458
